Assays:
HeLa Kyoto [1] = assay: solubility in G1/S (NP-40 vs SDS abundance) (log2 ratio); higher = more soluble; settings: cell cycle stage: G1/S
HeLa Kyoto [2] = assay: solubility change mitosis vs G1/S (difference of NP-40 vs SDS log2 ratios) (log2 ratio difference); higher = more soluble in mitosis
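Throughout, for solubility change mitosis vs G1/S (difference of NP-40 vs SDS log2 ratios): synchronized HeLa Kyoto cells (double thymidine block for G1/S, nocodazole release for mitosis), protein amounts in NP-40 versus SDS lysates quantified by mass spectrometry, three biological replicates.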
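Throughout, for solubility in G1/S (NP-40 vs SDS abundance): HeLa Kyoto cells arrested at G1/S by double thymidine block, proteins quantified by TMT10plex mass spectrometry in mild NP-40 versus SDS extracts, three biological replicates.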

| Substance | solubility in G1/S (log2) (HeLa Kyoto [1]) | solubility change mitosis (log2) (HeLa Kyoto [2]) |
| --- | --- | --- |
| MGVDFDVKTFCHNLRATKPPYECPVETCRKVYKSYSGIEYHLYHYDHDNPPPPQQTPLRKHKKKGRQSRPANKQSPSPSEVSQSPGREVMSYAQAQRMVEVDLHGRVHRISIFDNLDVVSEDEEAPEEAPENGSNKENTETPAATPKSGKHKNKEKRKDSNHHHHHNVSASTTPKLPEVVYRELEQDTPDAPPRPTSYYRYIEKSAEELDEEVEYDMDEEDYIWLDIMNERRKTEGVSPIPQEIFEYLMDRLEKESYFESHNKGDPNALVDEDAVCCICNDGECQNSNVILFCDMCNLAVHQECYGVPYIPEGQWLCRRCLQSPSRAVDCALCPNKGGAFKQTDDGRWAHVVCALWIPEVCFANTVFLEPIDSIEHIPPARWKLTCYICKQRGSGACIQCHKANCYTAFHVTCAQQAGLYMKMEPVRETGANGTSFSVRKTAYCDIHTPPGSARRLPALSHSEGEEDEDEEEDEGKGWSSEKVKKAKAKSRIKMKKARKILAEKRAAAPVVSVPCIPPHRLSKITNRLTIQRKSQFMQRLHSYWTLKRQSRNGVPLLRRLQTHLQSQRNCDQVGRDSEDKNWALKEQLKSWQRLRHDLERARLLVELIRKREKLKRETIKVQQIAMEMQLTPFLILLRKTLEQLQEKDTGNIFSEPVPLSEVPDYLDHIKKPMDFFTMKQNLEAYRYLNFDDFEEDFNLIVSNCLKYNAKDTIFYRAAVRLREQGGAVLRQARRQAEKMGIDFETGMHIPHSLAGDEATHHTEDAAEEERLVLLENQKHLPVEEQLKLLLERLDEVNASKQSVGRSRRAKMIKKEMTALRRKLAHQRETGRDGPERHGPSSRGSLTPHPAACDKDGQTDSAAEESSSQETSKGLGPNMSSTPAHEVGRRTSVLFSKKNPKTAGPPKRPGRPPKNRESQMTPSHGGSPVGPPQLPIMSSLRQRKRGRSPRPSSSSDSDSDKSTEDPPMDLPANGFSGGNQPVKKSFLVYRNDCSLPRSSSDSESSSSSSSSAASDRTSTTPSKQGRGKPSFSRGTFPEDSSEDTSGTENEAYSVGTGRGVGHSMVRKSLGRGAGWLSEDEDSPLDALDLVWAKCRGYPSYPALIIDPKMPREGMFHHGVPIPVPPLEVLKLGEQMTQEAREHLYLVLFFDNKRTWQWLPRTKLVPLGVNQDLDKEKMLEGRKSNIRKSVQIAYHRALQHRSKVQGEQSSETSDSD [BRPF1] | -1.3 | 0.44 |
| MHGHGGYDSDFSDDERCGESSKRKKRTVEDDLLLQKPFQKEKHGKVAHKQVAAELLDREEARNRRFHLIAMDAYQRHTKFVNDYILYYGGKKEDFKRLGENDKTDLDVIRENHRFLWNEEDEMDMTWEKRLAKKYYDKLFKEYCIADLSKYKENKFGFRWRVEKEVISGKGQFFCGNKYCDKKEGLKSWEVNFGYIEHGEKRNALVKLRLCQECSIKLNFHHRRKEIKSKKRKDKTKKDCEESSHKKSRLSSAEEASKKKDKGHSSSKKSEDSLLRNSDEEESASESELWKGPLPETDEKSQEEEFDEYFQDLFL [FRA10AC1] | -0.47 | 0.365 |
| MHPGGGPSRAERLELGLGRERPAKAIFLHRRPGEGGGRERCLRCGHVCVRRGPGPREAVPSGRPRPDTLTPPWVRQRAVTGTFCASWTPLRNRRAQRMATDMQRKRSSECLDGTLTPSDGQSMERAESPTPGMAQGMEPGAGQEGAMFVHARSYEDLTESEDGAASGDSHKEGTRGPPPLPTDMRQISQDFSELSTQLTGVARDLQEEMLPGSSEDWLEPPGAVGRPATEPPREGTTEGDEEDATEAWRLHQKHVFVLSEAGKPVYSRYGSEEALSSTMGVMVALVSFLEADKNAIRSIHADGYKVVFVRRSPLVLVAVARTRQSAQELAQELLYIYYQILSLLTGAQLSHIFQQKQNYDLRRLLSGSERITDNLLQLMARDPSFLMGAARCLPLAAAVRDTVSASLQQARARSLVFSILLARNQLVALVRRKDQFLHPIDLHLLFNLISSSSSFREGEAWTPVCLPKFNAAGFFHAHISYLEPDTDLCLLLVSTDREDFFAVSDCRRRFQERLRKRGAHLALREALRTPYYSVAQVGIPDLRHFLYKSKSSGLFTSPEIEAPYTSEEEQERLLGLYQYLHSRAHNASRPLKTIYYTGPNENLLAWVTGAFELYMCYSPLGTKASAVSAIHKLMRWIRKEEDRLFILTPLTY [MON1A] | 0.0361 | -0.081 |
| MICALL2 | 0.151 | -0.0133 |
| MIEVVCNDRLGKKVRVKCNTDDTIGDLKKLIAAQTGTRWNKIVLKKWYTIFKDHVSLGDYEIHDGMNLELYYQ [UBL5] | -1.06 | 0.566 |
| MISAPDVVAFTKEEEYEEEPYNEPALPEEYSVPLFPFASQGANPWSKLSGAKFSRDFILISEFSEQVGPQPLLTIPNDTKVFGTFDLNYFSLRIMSVDYQASFVGHPPGSAYPKLNFVEDSKVVLGDSKEGAFAYVHHLTLYDLEARGFVRPFCMAYISADQHKIMQQFQELSAEFSRASECLKTGNRKAFAGELEKKLKDLDYTRTVLHTETEIQKKANDKGFYSSQAIEKANELASVEKSIIEHQDLLKQIRSYPHRKLKGHDLCPGEMEHIQDQASQASTTSNPDESADTDLYTCRPAYTPKLIKAKSTKCFDKKLKTLEELCDTEYFTQTLAQLSHIEHMFRGDLCYLLTSQIDRALLKQQHITNFLFEDFVEVDDRMVEKQESIPSKPSQDRPPSSSLEECPIPKVLISVGSYKSSVESVLIKMEQELGDEEYKEVEVTELSSFDPQENLDYLDMDMKGSISSGESIEVLGTEKSTSVLSKSDSQASLTVPLSPQVVRSKAVSHRTISEDSIEVLSTCPSEALIPDDFKASYPSAINEEESYPDGNEGAIRFQASISPPELGETEEGSIENTPSQIDSSCCIGKESDGQLVLPSTPAHTHSDEDGVVSSPPQRHRQKDQGFRVDFSVENANPSSRDNSCEGFPAYELDPSHLLASRDISKTSLDNYSDTTSYVSSVASTSSDRIPSAYPAGLSSDRHKKRAGQNALKFIRQYPFAHPAIYSLLSGRTLVVLGEDEAIVRKLVTALAIFVPSYGCYAKPVKHWASSPLHIMDFQKWKLIGLQRVASPAGAGTLHALSRYSRYTSILDLDNKTLRCPLYRGTLVPRLADHRTQIKRGSTYYLHVQSMLTQLCSKAFLYTFCHHLHLPTHDKETEELVASRQMSFLKLTLGLVNEDVRVVQYLAELLKLHYMQESPGTSHPMLRFDYVPSFLYKI [SMCR8] | -0.0823 | 0.0252 |
| MKDVDNLKSIKEEWVCETGSDNQPLGNNQQSNCEYFVDSLFEEAQKVSSKCVSPAEQKKQVDVNIKLWKNGFTVNDDFRSYSDGASQQFLNSIKKGELPSELQGIFDKEEVDVKVEDKKNEICLSTKPVFQPFSGQGHRLGSATPKIVSKAKNIEVENKNNLSAVPLNNLEPITNIQIWLANGKRIVQKFNITHRVSHIKDFIEKYQGSQRSPPFSLATALPVLRLLDETLTLEEADLQNAVIIQRLQKTASFRELSEH [UBXN2A] | 0.0566 | 0.0265 |
| MKFVYKEEHPFEKRRSEGEKIRKKYPDRVPVIVEKAPKARIGDLDKKKYLVPSDLTVGQFYFLIRKRIHLRAEDALFFFVNNVIPPTSATMGQLYQEHHEEDFFLYIAYSDESVYGL [GABARAP] | 0.16 | -0.0822 |
| MKLHYVAVLTLAILMFLTWLPESLSCNKALCASDVSKCLIQELCQCRPGEGNCSCCKECMLCLGALWDECCDCVGMCNPRNYSDTPPTSKSTVEELHEPIPSLFRALTEGDTQLNWNIVSFPVAEELSHHENLVSFLETVNQPHHQNVSVPSNNVHAPYSSDKEHMCTVVYFDDCMSIHQCKISCESMGASKYRWFHNACCECIGPECIDYGSKTVKCMNCMF [TWSG1] | 0.0362 | -0.383 |
| MKRVNSCVKSDEHVLEELETEGERQLKSLLQHQLDTSVSIEECMSKKESFAPGTMYKPFGKEAAGTMTLSQFQTLHEKDQETASLRELGLNETEILIWKSHVSGEKKTKLRATPEAIQNRLQDIEERISERQRILCLPQRFAKSKQLTRREMEIEKSLFQGADRHSFLKALYYQDEPQKKNKGDPMNNLESFYQEMIMKKRLEEFQLMRGEPFASHSLVSATSVGDSGTAESPSLLQDKGKQAAQGKGPSLHVANVIDFSPEQCWTGPKKLTQPIEFVPEDEIQRNRLSEEEIRKIPMFSSYNPGEPNKVLYLKNLSPRVTERDLVSLFARFQEKKGPPIQFRMMTGRMRGQAFITFPNKEIAWQALHLVNGYKLHGKILVIEFGKNKKQRSNLQATSLISCATGSTTEISGS [RBM41] | -0.192 | -0.0432 |

Source: the supplement of paper PMC5998384
